Assay results taken from publication PMC10357528.

Target: SARS-CoV-2 receptor-binding domain, wild-type (SARS-CoV-2) (UniProt P0DTC2)
Assay: AlphaScreen or HTRF

“SARS-CoV-2 receptor-binding domain, wild-type (from UniProt P0DTC2 319-541) (domain or fragment)” gave an AlphaLISA signal of 29000 CPS.
